From US20210246166A1 (Bayer, published 2021)
Numbered stars: 1 amine (or outer) side, 2 acyl side, 3 side chain; on linkers, the order of the positions; unused ones are H or OH. Bridge positions count the residues as written; N and C are the ends. Square brackets hold non-standard residues; d marks the D form. Ends that are not written are not given here. (N-Benzyl)D = (2S)-2-Amino-4-(benzylamino)-4-oxobutanecarboxylic acid, O=C(C[C@H](N[*:1])C(=O)[*:2])NCc1ccccc1; X10 = (2R)‑2‑amino‑3‑(trifluoromethylsulfanyl)propanoic acid, O=C([C@H](CSC(F)(F)F)N[*:1])[*:2]; Phe(2,5-diF) = O=C([C@H](Cc1cc(F)ccc1F)N[*:1])[*:2]; NH(CH2CH2O)4CH2CO = O=C(COCCOCCOCCOCCN[*:1])[*:2]; PEG9 = NCCOCCOCCOCCOCCOCCOCCOCCOCCOCCC(=O)O; Pro(4-spirocPr) = O=C(O)[C@@H]1CC2(CC2)CN1; Oic = O=C(O)[C@@H]1C[C@@H]2CCCC[C@@H]2N1; tBuAla = CC(C)(C)C[C@H](N)C(=O)O; Pen = CC(C)(S)[C@H](N)C(=O)O; NMeA = CN[C@@H](C)C(=O)O; Orn = NCCC[C@H](N)C(=O)O; dβPro = D-beta-Proline; Sar = CNCC(=O)O

T1: recombinant human MASP1 active protease (amino acids 297-699, C-terminal His Tag) (human, UniProt P48740 297-699)
T1 sequence: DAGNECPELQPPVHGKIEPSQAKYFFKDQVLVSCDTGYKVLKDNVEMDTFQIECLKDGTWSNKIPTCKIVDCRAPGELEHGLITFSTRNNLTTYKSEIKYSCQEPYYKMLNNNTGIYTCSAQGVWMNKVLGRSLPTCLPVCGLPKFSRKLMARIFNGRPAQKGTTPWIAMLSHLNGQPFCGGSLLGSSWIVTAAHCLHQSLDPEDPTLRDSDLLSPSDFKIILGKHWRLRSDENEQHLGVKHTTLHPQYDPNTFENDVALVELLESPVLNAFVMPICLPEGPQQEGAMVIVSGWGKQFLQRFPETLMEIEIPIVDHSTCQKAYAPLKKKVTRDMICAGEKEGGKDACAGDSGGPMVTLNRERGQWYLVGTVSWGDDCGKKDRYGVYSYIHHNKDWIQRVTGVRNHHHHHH

T2: Recombinant human MASP1 enzyme (fragment corresponding to amino acids 297-699, C-terminal His Tag) (human, UniProt P48740 297-699)
T2 sequence: T1 sequence

B1: ((N-Me)G)-IC+SRS-((tBu)A)-PPI-(Pen)+IP-(PEG9(31 atoms))-NH2 (peptide)
peptide: [Sar]ICSRS[tBuAla]PPI[Pen]IP-{PEG9-NH2}
modifications: disulfide 3-11
B2: AIC+SRS-((tBu)A)-P-((6S)-5-Azaspiro[2.4]heptane-6-carboxylic acid)-I-(Pen)+IPD-NH2 (peptide)
peptide: AICSRS[tBuAla]P[Pro(4-spirocPr)]I[Pen]IPD-NH2
modifications: disulfide 3-11; N-terminus assumed
SMILES: CC[C@H](C)[C@H](NC(=O)[C@H](C)N)C(=O)N[C@H]1CSSC(C)(C)[C@@H](C(=O)N[C@H](C(=O)N2CCC[C@H]2C(=O)N[C@@H](CC(=O)O)C(N)=O)[C@@H](C)CC)NC(=O)[C@H]([C@@H](C)CC)NC(=O)[C@@H]2CC3(CC3)CN2C(=O)[C@@H]2CCCN2C(=O)[C@H](CC(C)(C)C)NC(=O)[C@H](CO)NC(=O)[C@H](CCCNC(=N)N)NC(=O)[C@H](CO)NC1=O
B3: ((N-Me)G)-IC+SRS-((tBu)A)-PPI-(Pen)+IP-(PEG4-CH2CO2H(15 atoms))-OH (peptide)
peptide: [Sar]ICSRS[tBuAla]PPI[Pen]IP[NH(CH2CH2O)4CH2CO]-OH
modifications: disulfide 3-11; N-terminus assumed
SMILES: CC[C@H](C)[C@H](NC(=O)CNC)C(=O)N[C@H]1CSSC(C)(C)[C@@H](C(=O)N[C@H](C(=O)N2CCC[C@H]2C(=O)NCCOCCOCCOCCOCC(=O)O)[C@@H](C)CC)NC(=O)[C@H]([C@@H](C)CC)NC(=O)[C@@H]2CCCN2C(=O)[C@@H]2CCCN2C(=O)[C@H](CC(C)(C)C)NC(=O)[C@H](CO)NC(=O)[C@H](CCCNC(=N)N)NC(=O)[C@H](CO)NC1=O
B4: AIC+SRSL-((1S,2S,5R)-3-Azabicyclo[3.1.0]hexane-2-carboxylic acid)-PI-(Pen)+IPD-OH (peptide)
peptide: AICSRSL[(1S,2S,5R)‑3‑Azabicyclo(3.1.0)hexane‑2‑carboxylic acid]PI[Pen]IPD-OH
modifications: disulfide 3-11
B5: ((N-Me)G)-IC+SRS-(2-Amino-5,5,5-trifluoro-4-methyl-pentanoic acid)-PPI-(Pen)+IPD-OH (peptide)
peptide: [Sar]ICSRS[2‑Amino‑5,5,5‑trifluoro‑4‑methyl‑pentanoic acid]PPI[Pen]IPD-OH
modifications: disulfide 3-11
B6: ((N-Me)G)-IC+SRS-((2S)-2-Amino-5-methyl-hexanoic acid)-PPI-(Pen)+IPD-OH (peptide)
peptide: [Sar]ICSRS[(2S)‑2‑Amino‑5‑methyl‑hexanoic acid]PPI[Pen]IPD-OH
modifications: disulfide 3-11
B7: ((N-Me)G)-IC+SRS-((2,5-Difluoro)F)-PPI-(Pen)+IPD-OH (peptide)
peptide: [Sar]ICSRS[Phe(2,5-diF)]PPI[Pen]IPD-OH
modifications: disulfide 3-11; N-terminus assumed
SMILES: CC[C@H](C)[C@H](NC(=O)CNC)C(=O)N[C@H]1CSSC(C)(C)[C@@H](C(=O)N[C@H](C(=O)N2CCC[C@H]2C(=O)N[C@@H](CC(=O)O)C(=O)O)[C@@H](C)CC)NC(=O)[C@H]([C@@H](C)CC)NC(=O)[C@@H]2CCCN2C(=O)[C@@H]2CCCN2C(=O)[C@H](Cc2cc(F)ccc2F)NC(=O)[C@H](CO)NC(=O)[C@H](CCCNC(=N)N)NC(=O)[C@H](CO)NC1=O
B8: (Orn)-IC+SRS-((2R)-2-amino-3-(trifluoromethylsulfanyl)propanoic acid)-PPI-(Pen)+IPD-OH (peptide)
peptide: [Orn]ICSRS[X10]PPI[Pen]IPD-OH
modifications: disulfide 3-11; N-terminus assumed
SMILES: CC[C@H](C)[C@H](NC(=O)[C@@H](N)CCCN)C(=O)N[C@H]1CSSC(C)(C)[C@@H](C(=O)N[C@H](C(=O)N2CCC[C@H]2C(=O)N[C@@H](CC(=O)O)C(=O)O)[C@@H](C)CC)NC(=O)[C@H]([C@@H](C)CC)NC(=O)[C@@H]2CCCN2C(=O)[C@@H]2CCCN2C(=O)[C@H](CSC(F)(F)F)NC(=O)[C@H](CO)NC(=O)[C@H](CCCNC(=N)N)NC(=O)[C@H](CO)NC1=O
B9: ((N-Me)A)-IC+SRSLP-(Oic)-I-(Pen)+IP-((N-Benzyl)D)-NH2 (peptide)
peptide: [NMeA]ICSRSLP[Oic]I[Pen]IP[(N-Benzyl)D]-NH2
modifications: disulfide 3-11
B10: (beta-p)-IC+SRS-((tBu)A)-PPI-(Pen)+IPD-OH (peptide)
peptide: [dβPro]ICSRS[tBuAla]PPI[Pen]IPD-OH
modifications: disulfide 3-11

Target: T1, recombinant human MASP1 active protease …
Assay: cell-based or functional assay

Binder	human MASP1 IC50 [nM]
B1	1.8
B2	1.83

Target: recombinant human MASP2 active protease (amino acids 297-686, C-terminal His Tag) (human, UniProt O00187 297-686)
Assay: cell-based or functional assay

Sequence of recombinant human MASP2 active protease (amino acids 297-686, C-terminal His Tag) (O00187 other isoform, or with tags, fused parts or gaps limits assumed): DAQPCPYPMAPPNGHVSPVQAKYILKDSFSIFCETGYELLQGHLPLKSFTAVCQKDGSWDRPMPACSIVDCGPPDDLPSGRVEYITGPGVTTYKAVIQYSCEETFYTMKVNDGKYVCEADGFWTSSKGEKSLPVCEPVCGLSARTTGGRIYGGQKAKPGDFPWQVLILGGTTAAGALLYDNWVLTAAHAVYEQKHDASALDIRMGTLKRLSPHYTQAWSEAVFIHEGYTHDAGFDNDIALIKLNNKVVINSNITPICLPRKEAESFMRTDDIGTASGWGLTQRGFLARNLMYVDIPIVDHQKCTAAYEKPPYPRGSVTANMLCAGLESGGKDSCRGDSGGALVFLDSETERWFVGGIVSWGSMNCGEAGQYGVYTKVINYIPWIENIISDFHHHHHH

Binder	human MASP2 IC50 [nM]
B1	73
B2	24.5

Target: T2, Recombinant human MASP1 enzyme …
Assay: cell-based or functional assay

Binder	human MASP1 IC50 [nM]
B3	6.2
B4	1.7
B5	14
B6	65
B7	18
B8	3.1
B9	12
B10	2.5

Target: Recombinant human MASP2 enzyme (fragment corresponding to amino acids 297-686, C-terminal His Tag) (human, UniProt O00187 297-686)
Assay: cell-based or functional assay

Sequence of Recombinant human MASP2 enzyme (fragment corresponding to amino acids 297-686, C-terminal His Tag) (O00187 other isoform, or with tags, fused parts or gaps limits assumed): as above

Binder	human MASP2 IC50 [nM]
B3	76
B4	27
B5	330
B6	70
